# Reference: patent US20210107983A1 (Boehringer Ingelheim, published 2021)
# T1: Cyno B7H6-His (cynomolgus monkey)
# T1 construct: also called CyB7H6; cyB7-H6
# T1 chain: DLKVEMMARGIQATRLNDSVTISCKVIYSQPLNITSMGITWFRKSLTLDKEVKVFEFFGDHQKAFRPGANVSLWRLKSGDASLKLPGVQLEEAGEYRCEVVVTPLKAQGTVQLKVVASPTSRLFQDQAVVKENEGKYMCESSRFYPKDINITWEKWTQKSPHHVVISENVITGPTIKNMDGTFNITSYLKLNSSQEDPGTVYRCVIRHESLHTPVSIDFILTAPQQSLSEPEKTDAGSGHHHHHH
# Assays:
# [1] = target: T1, Cyno B7H6-His; experiment: ratio of SPR KDs cyno/human
# Experimental: (§1) About 700 RU of the B7H6/CD3 binding protein was captured on flow cell 2 of the Protein A/G surface for 60 s at a flow rate of 10 μL/min. The analytes HuB7H6, CyB7H6 and HuB7H1 were injected across both flow cells over captured B7H6/CD3 binding protein for 300 s at a flow rate of 30 μL/min with a dissociation of 1200 s. The concentrations of HuB7H6 and CyB7H6 were 0 nM, 6.25 nM, 12.5 nM, 25 nM, 50 nM and 100 nM. The concentrations of HuB7H1 were 0 nM and 1 μM. The surface was regenerated by injecting 10 mM glycine-HCl, pH 1.5 for 20 s at a flow rate of 30 μL/min across both flow cells.
# (§2) The reference flow cell 1 (interactions with sensor surface) and blank (HBS-EP+ or 0 nM analyte) were subtracted from the raw data.
# (§3) The B7H6/CD3 binding protein analyte was injected horizontally over the immobilized surface for 300 s at a flow rate of 30 μL/min with a dissociation of 600 s. The concentrations of the B7H6/CD3 binding protein used were 0 nM, 1.2 nM, 3.7 nM, 11.1 nM, 33.3 nM and 100 nM.
# [2] = target: T2, chicken egg white lysozyme (chicken, UniProt P00698 19-147); experiment: SPR, 1 µM binder over immobilized lysozyme
# T2 construct: unrelated positively charged protein, amine-coupled to the chip; also called Lysozyme (positive)
# T2 sequence (P00698 19-147): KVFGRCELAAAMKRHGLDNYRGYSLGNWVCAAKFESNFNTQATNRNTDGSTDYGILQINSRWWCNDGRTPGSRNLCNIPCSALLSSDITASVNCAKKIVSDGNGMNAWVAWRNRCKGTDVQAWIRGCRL
# Experimental: (§4) The experiment was performed on a Biacore® T200 SPR system (GE Healthcare Life Sciences). The dilution, surface preparation, and binding experiments were performed at 25° C. in 1×HBS-EP buffer prepared from 10×HBS-EP. The flow rate for both the immobilization protocol and binding experiment was at 5 μL/min.
# (§5) To prepare the surface for the non-specific binding experiment, chicken egg white lysozyme and trypsin inhibitor from Glycine max soybean were coupled manually to a Biacore® series S CM5 sensor chip (GE Healthcare sciences) with the surface density of 3000-5000 RU using the amine coupling kit according to the manufacture instructions. Samples were prepared at 1 μM in 1×HBS-EP buffer. The samples were injected over activated surfaces with a 10 min association and 15 min dissociation. The data was collected using Biacore® T200 Control Software version 2.0.1 and analyzed using Biacore® T200 Evaluation Software version 3.0 (GE Healthcare Life Sciences).
# [3] = target: T3, Human CD3 E+G HuFc-6xHis (human); experiment: SPR, CD3E+G-hFc immobilized, binder analyte
# T3 construct: also called HuCD3E+G-hFc; huCD3
# T3 sequence (chain, as listed by the source limits assumed): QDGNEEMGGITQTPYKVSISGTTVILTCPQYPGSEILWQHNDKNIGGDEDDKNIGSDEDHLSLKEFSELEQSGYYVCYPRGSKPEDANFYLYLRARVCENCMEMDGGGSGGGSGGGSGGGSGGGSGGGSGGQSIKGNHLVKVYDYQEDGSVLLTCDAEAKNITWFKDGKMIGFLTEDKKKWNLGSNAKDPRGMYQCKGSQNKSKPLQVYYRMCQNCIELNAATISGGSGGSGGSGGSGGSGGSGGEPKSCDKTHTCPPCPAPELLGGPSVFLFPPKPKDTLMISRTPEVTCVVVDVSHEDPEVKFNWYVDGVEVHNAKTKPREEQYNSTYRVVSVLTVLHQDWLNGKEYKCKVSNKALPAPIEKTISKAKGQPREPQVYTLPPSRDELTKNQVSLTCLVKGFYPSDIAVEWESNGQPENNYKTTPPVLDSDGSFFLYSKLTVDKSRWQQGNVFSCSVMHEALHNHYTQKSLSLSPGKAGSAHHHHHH
# Experimental: To determine the affinity of the B7H6/CD3 binding protein to human and cyno CD3E+G-hFc, the experiment was performed on a Bio-Rad ProteOn™ XPR36 instrument. Briefly, HuCD3E+G-hFc and CyCD3E+G were amine-coupled on a ProteOn™ GLM sensor chip (Bio-Rad) and the B7H6/CD3 binding protein was flowed over the immobilized surface. The running buffer for this experiment and all serial dilutions were prepared in HBS-EP+. The GLM sensor chip was normalized according to Bio-Rad's recommendations. The sensor chip was activated with an equal mixture of EDC/s-NHS in the horizontal direction for 300 s at a flow rate of 30 μL/min HuCD3E+G-hFc was immobilized in the vertical direction at 0.4 μg/mL, 0.2 μg/mL and 0.1 μg/mL in 10 mM acetate pH 4.5 to L1, L2 and L3, respectively, for 300 s at a flow rate of 30 μL/min resulting in about 100 RU of HuCD3E+G-hFc on L1, 40 RU of HuCD3E+G-hFc on L2 and 0 RU of HuCD3E+G-hFc on L3. CyCD3E+G-hFc was immobilized in the vertical direction at 0.4 μg/mL, 0.2 μg/mL and 0.1 μg/mL in 10 mM acetate pH 4.5 to L4, L5 and L6, respectively, for 300 s at a flow rate of 30 μL/min resulting in about 385 RU of […], 170 RU of CyCD3E+G-hFc on L5 and 50 RU of CyCD3E+G-hFc on L6. The sensor chip was deactivated with 1M ethanolamine-HCl in the horizontal direction for 300 s at a flow rate of 30 μL/min.
# as §3
# The interspot (interactions with sensor surface) and blank (HBS-EP+ or 0 nM analyte) were subtracted from the raw data.
# [4] = target: T1, Cyno B7H6-His; experiment: SPR, binder captured on Protein A/G, B7H6 analyte
# Experimental: (§6) To determine the affinity of human and cyno B7H6 and human B7H1 to B7H6/CD3 binding proteins, the experiment was performed on a Biacore™ 8K instrument (GE Healthcare Life Sciences). Briefly, the B7H6/CD3 binding protein was captured via Protein A/G. The running buffer for this experiment and all serial dilutions were prepared in HBS-EP+. The CM5 sensor chip was activated with an equal mixture of EDC/NHS across both flow cells for 420 s at a flow rate of 10 μL/min and immobilized with recombinant Protein A/G (50 μg/ml in 10 mM NaOAc, pH 4.5) across all flow cells for 420 s at a flow rate of 10 μL/min resulting in about 2500 RU of Protein A/G on the surface. The sensor chip was deactivated with 1M ethanolamine-HCl across all flow cells for 420 s at a flow rate of 10 μL/min.
# as §1, §2
# [5] = target: T4, Human B7H1 (human, UniProt Q9NZQ7 20-239); experiment: SPR, binder captured on Protein A/G, HuB7H1 analyte
# T4 construct: also called HuB7H1; huB7-H1
# T4 sequence (Q9NZQ7 other isoform, or with tags, fused parts or gaps limits assumed): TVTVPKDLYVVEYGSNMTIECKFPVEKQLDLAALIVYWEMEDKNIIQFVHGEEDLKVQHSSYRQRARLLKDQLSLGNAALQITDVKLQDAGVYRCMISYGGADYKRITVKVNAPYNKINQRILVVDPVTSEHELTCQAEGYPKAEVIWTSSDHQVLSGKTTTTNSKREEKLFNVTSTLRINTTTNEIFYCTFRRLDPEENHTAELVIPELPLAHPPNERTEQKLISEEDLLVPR
# Experimental: as §6, §1, §2
# [6] = target: T5, trypsin inhibitor from Glycine max soybean (Glycine max (soybean)); experiment: SPR, 1 µM binder over immobilized trypsin inhibitor
# T5 construct: unrelated negatively charged protein, amine-coupled to the chip
# T5 sequence (P01070 25-205): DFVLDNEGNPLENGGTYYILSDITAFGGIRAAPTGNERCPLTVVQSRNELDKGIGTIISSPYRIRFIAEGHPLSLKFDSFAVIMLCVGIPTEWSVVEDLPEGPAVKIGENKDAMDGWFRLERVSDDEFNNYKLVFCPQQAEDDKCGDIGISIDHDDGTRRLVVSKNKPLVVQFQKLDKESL
# Experimental: as §4, §5
Binder,cy/hu B7-H6 [1],Non-specific binding (RU) [2] [RU],Kd [3] [nM],Kd [4] [nM],binding result [5],Non-specific binding (RU) [6] [RU]
"B7H6#15/CD3#1 (bispecific antibody, human IgG1, kappa, lambda, L234A L235A, scFab-Fc heterodimer, one B7H6 chain and one CD3 chain) chain 1: DIQMTQSPSSLSASVGDRVTITCKASQNVGKYVAWYQQKPGKAPKSLIYSASNRYDGVPSRFSGSGSGTDFTLTISSLQPEDFTTYYCQQYISYPLTFGAGTKLEIKRTVAAPSVFIFPPSDEQLKSGTASVVCLLNNFYPREAKVQWKVDNALQSGNSQESVTEQDSKDSTYSLSSTLTLSKADYEKHKVYACEVTHQGLSSPVTKSFNRGECGGGGSEGKSSGSGSESKSTEGKSSGSGSESKSTGGGGSQVQLVQSGAEVKKPGASVKVSCKASGYTFTNYWMNWMRQAPGQGLEWMGGIYLSGDSTDYNEKFKGRVTMTVDTSTSTVYMELSSLRSEDTAVYYCTRRGDYFGDFWGQGTLVTVSSASTKGPSVFPLAPSSKSTSGGTAALGCLVKDYFPEPVTVSWNSGALTSGVHTFPAVLQSSGLYSLSSVVTVPSSSLGTQTYICNVNHKPSNTKVDKRVEPKSCDKTHTCPPCPAPEAAGGPSVFLFPPKPKDTLMISRTPEVTCVVVDVSHEDPEVKFNWYVDGVEVHNAKTKPREEQYNSTYRVVSVLTVLHQDWLNGKEYKCKVSNKALPAPIEKTISKAKGQPREPQVYTLPPSREEMTKNQVSLWCLVKGFYPSDIAVEWESNGQPENNYKTTPPVLDSDGSFFLYSKLTVDKSRWQQGNVFSCSVMHEALHNHYTQKSLSLSPG chain 2: EAVVTQEPSLTVSPGGTVTLTCRSSTGAVTTSNYANWVQEKPGQLPRGLIGGTNKRAPWVPARFSGSLLGGKAALTLSGAQPEDEAEYFCALWYSNLWVFGGGTKLTVLGQPKAAPSVTLFPPSSEELQANKATLVCLISDFYPGAVKVAWKADGSPVNTGVETTTPSKQSNNKYAASSYLSLTPEQWKSHRSYSCQVTHEGSTVEKTVAPAECSGGGGSEGKSSGSGSESKSTEGKSSGSGSESKSTGGGGSEVQLVESGGGLVQPGGSLKLSCAASGFTFNTYAMNWVRQAPGKGLEWVARIRSKYNNYATYYADSVKDRFTISRDDSKNTAYLQMNNLKTEDTAVYYCVRHGNFGNSYVSWFAYWGQGTLVTVSAASTKGPSVFPLAPSSKSTSGGTAALGCLVKDYFPEPVTVSWNSGALTSGVHTFPAVLQSSGLYSLSSVVTVPSSSLGTQTYICNVNHKPSNTKVDKRVEPKSCDKTHTCPPCPAPEAAGGPSVFLFPPKPKDTLMISRTPEVTCVVVDVSHEDPEVKFNWYVDGVEVHNAKTKPREEQYNSTYRVVSVLTVLHQDWLNGKEYKCKVSNKALPAPIEKTISKAKGQPREPQVYTLPPSREEMTKNQVSLSCAVKGFYPSDIAVEWESNGQPENNYKTTPPVLDSDGSFFLVSKLTVDKSRWQQGNVFSCSVMHEALHNRFTQKSLSLSPG",2.8,7.2,3.8,2.2,no binding (tested: 1 µM),32.8
"B7H6#16/CD3#1 (bispecific antibody, human IgG1, kappa, lambda, L234A L235A, scFab-Fc heterodimer, one B7H6 chain and one CD3 chain) chain 1: DIQMTQSPSSLSASVGDRVTITCKASQNVGKYVAWYQQKPGKAPKSLIYSASNRYDGVPSRFSGSGSGTDFTLTISSLQPEDFTTYYCQQYISYPLTFGAGTKLEIKRTVAAPSVFIFPPSDEQLKSGTASVVCLLNNFYPREAKVQWKVDNALQSGNSQESVTEQDSKDSTYSLSSTLTLSKADYEKHKVYACEVTHQGLSSPVTKSFNRGECGGGGSEGKSSGSGSESKSTEGKSSGSGSESKSTGGGGSQVQLVQSGAEVKKPGASVKVSCKASGYTFTSYWMNWMRQAPGQGLEWMGGIYLSGESTDYNEKFKGRVTMTVDTSTSTVYMELSSLRSEDTAVYYCTRRGDYFGDFWGQGTLVTVSSASTKGPSVFPLAPSSKSTSGGTAALGCLVKDYFPEPVTVSWNSGALTSGVHTFPAVLQSSGLYSLSSVVTVPSSSLGTQTYICNVNHKPSNTKVDKRVEPKSCDKTHTCPPCPAPEAAGGPSVFLFPPKPKDTLMISRTPEVTCVVVDVSHEDPEVKFNWYVDGVEVHNAKTKPREEQYNSTYRVVSVLTVLHQDWLNGKEYKCKVSNKALPAPIEKTISKAKGQPREPQVYTLPPSREEMTKNQVSLWCLVKGFYPSDIAVEWESNGQPENNYKTTPPVLDSDGSFFLYSKLTVDKSRWQQGNVFSCSVMHEALHNHYTQKSLSLSPG chain 2: EAVVTQEPSLTVSPGGTVTLTCRSSTGAVTTSNYANWVQEKPGQLPRGLIGGTNKRAPWVPARFSGSLLGGKAALTLSGAQPEDEAEYFCALWYSNLWVFGGGTKLTVLGQPKAAPSVTLFPPSSEELQANKATLVCLISDFYPGAVKVAWKADGSPVNTGVETTTPSKQSNNKYAASSYLSLTPEQWKSHRSYSCQVTHEGSTVEKTVAPAECSGGGGSEGKSSGSGSESKSTEGKSSGSGSESKSTGGGGSEVQLVESGGGLVQPGGSLKLSCAASGFTFNTYAMNWVRQAPGKGLEWVARIRSKYNNYATYYADSVKDRFTISRDDSKNTAYLQMNNLKTEDTAVYYCVRHGNFGNSYVSWFAYWGQGTLVTVSAASTKGPSVFPLAPSSKSTSGGTAALGCLVKDYFPEPVTVSWNSGALTSGVHTFPAVLQSSGLYSLSSVVTVPSSSLGTQTYICNVNHKPSNTKVDKRVEPKSCDKTHTCPPCPAPEAAGGPSVFLFPPKPKDTLMISRTPEVTCVVVDVSHEDPEVKFNWYVDGVEVHNAKTKPREEQYNSTYRVVSVLTVLHQDWLNGKEYKCKVSNKALPAPIEKTISKAKGQPREPQVYTLPPSREEMTKNQVSLSCAVKGFYPSDIAVEWESNGQPENNYKTTPPVLDSDGSFFLVSKLTVDKSRWQQGNVFSCSVMHEALHNRFTQKSLSLSPG",2.3,8.2,3.7,7.2,no binding (tested: 1 µM),42.6
